Results reported in the supplement of paper PMC9732359.
± gives the uncertainty stated by the source.

Experiment: protein stability index of a GFP-peptide fusion (yeast GPS) (PSI 1-4); higher = more stable; sorted into four equal gates, so the index is relative within each strain
Conditions: ubr1∆
Method in brief: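 Plasmids isolated from each sorting gate were PCR-amplified and Illumina-sequenced, and barcodes assigned the reads to strains. The gates, four of equal size, were set by GFP/Cherry fluorescence ratio on mid-log cultures in leucine-free medium. These cultures were yeast carrying a pooled library of tiled 17-residue yeast protein peptides fused downstream of GFP on a plasmid that also expresses Cherry. The protein stability index is the sum of every gate's read frequency times its gate number.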

Sequence | protein stability index
DPRHIQLLGDVMTYKGE [RPO31] | 3.06 ± 0.048
DQNEFLLERTREIHNEA [FAS2] | 3.08 ± 0.067
DQRDELLEQKKSIINSQ [ITC1] | 3.19 ± 0.068
DQSIASGNTNGAGSAFG [YOR098C/NUP1] | 2.49 ± 0.078
DQVLVKGGEQISQLYSD [YJL041W/NSP1] | 3.16 ± 0.091
DRELNEVINQMERLDGD [SMC3] | 3.1 ± 0.045
DRLILDLKLPPMDAYLK [SNU114] | 3.17 ± 0.063
DRLSLQDRQQLLPLVVS [ECM29] | 1.84 ± 0.037
DRNLTEFDSTDTSLCIN [RRI1] | 2.79 ± 0.067
DRREKAERTMSKKETKL [SMC2] | 3.39 ± 0.099
DSFSGAKIYPGRGTLFV [RPL24A] | 2.68 ± 0.052
DSIYTKPVKVALIFIFF [YJL039C/NUP192] | 1.68 ± 0.023
DSKGSLYSVKFAPAHLG [YGL100W/SEH1] | 2.81 ± 0.062
DSPFSLICQNNLNAFVD [SRP72] | 2.92 ± 0.046
DSSAHFKGALTIKILPE [YMR129W/POM152] | 2.49 ± 0.042
DSVATVIEVIETKWDDA [YJR042W/NUP85] | 2.1 ± 0.27
DSVEFIFQAKRNSNPEN [RPN10] | 2.69 ± 0.083
DSVLQLASFEKTTDHLF [RPO31] | 2.74 ± 0.041
DTEMKMKSLLTELSNKE [YIL149C/MLP2] | 3.35 ± 0.049
DTFELIKTFLVDLTSSN [YDL116W/NUP84] | 3.1 ± 0.046
DTGTLDTKSVVGLVMFS [RPN2] | 2.42 ± 0.069
DTKKVKESPANDQASNE [YIL149C/MLP2] | 3.15 ± 0.19
DTSKALLNVSVNITKFS [SKI6] | 2.42 ± 0.072
DTTVNDCLDKLLNDECT [SNF2] | 3.73 ± 0.094
DVAIENNTLSRYADAGN [RRP43] | 3.44 ± 0.041
DVAYLLKSESATSQYLK [YGL172W/NUP49] | 3.03 ± 0.11

Sequence | protein stability index
DVFDTLATYCPRVQGFY [GRR1] | 2.6 ± 0.055
DVHLLESKVYHKLRNLA [RPN6] | 2.13 ± 0.11
DVILDYQTKKFYDYIKE [REC8] | 2.92 ± 0.051
DVKLLHSQFMKDLKDDS [YJL039C/NUP192] | 2.72 ± 0.055
DVKVSISHDDLQAVAVA [FAS2] | 2.22 ± 0.049
DVNALKFNNTQRESQIG [SNF12] | 3.12 ± 0.063
DVNIVNRRLVYSRILKS [YCG1] | 1.21 ± 0.059
DVSVKMGNTKVHCRISC [RRP45] | 2.09 ± 0.074
DVVAHRQLAGAIGYEPL [DIS3] | 2.19 ± 0.11
DVYASKVRLNASEREEL [PRP8] | 1.78 ± 0.046
DWGQALRLLLLLIEFPY [YJR042W/NUP85] | 1.21 ± 0.034
DWQKEDGIFSSKTDNIE [YMR153W/NUP53] | 2.86 ± 0.2
DYDVSKKASEISVSSRS [SRP14] | 2.98 ± 0.21
DYINELSNSNRFELHGD [REC8] | 3.03 ± 0.13
DYSINSRYEPKVFDCGD [PRE7] | 2.59 ± 0.063
EAAAAEEGEEEEVKEEV [RPS0B] | 3.37 ± 0.11
EAELSSTKVENSAIIQN [YIL149C/MLP2] | 3.13 ± 0.062
EAGASAELDDCRGVSEN [RPO21] | 3.6 ± 0.13
EAGLQLCRQGHNMLNLL [PRP8] | 1.99 ± 0.06
EAHNKALNQFKRKLLEH [RPT4] | 3.4 ± 0.15
EAIRDPKNSSSPVQIAF [SSN8] | 2.98 ± 0.12
EALLVVLVSSVTEANII [RPS12] | 1.13 ± 0.11
EALNLLKFFLVDENETV [LIN1] | 1.14 ± 0.054
EALVERRRAFKRSQKKH [RPB4] | 3.31 ± 0.11
EAMLRENIEVILSNGRM [SNF12] | 2.75 ± 0.059
EAMMLKEEGLQQFNLHE [MED1] | 2.61 ± 0.12

Sequence | protein stability index
EAVDDVFQAKMMDMLKQ [RPN11] | 2.79 ± 0.065
ECPAIPIFNYIFTEKIY [YJL039C/NUP192] | 1.4 ± 0.034
EDARRNPNPSSQRAQVV [RPC37] | 3.38 ± 0.054
EDCDLVIMALMLMSKIG [POP5] | 2.32 ± 0.037
EDDNNNVEKPSSKPAFN [YLR335W/NUP2] | 3.2 ± 0.063
EDGPRPFKVFLDIGLQR [RPL5] | 3.04 ± 0.033
EDGTFSVLYPDELEDDT [RRP43] | 3.11 ± 0.063
EDHVEDHRKRKKSKIQL [LIN1] | 3.16 ± 0.052
EDISKATHLPKDNVEHL [RPN9] | 3.26 ± 0.061
EDKQNIEINEDNSQDDQ [RRI2] | 3.23 ± 0.04
EDNAGVIANPKGEMKGS [RPL23A] | 1.85 ± 0.059
EDNNDAVNSIMALKFVS [ECM29] | 3.32 ± 0.07
EDNYNPKMQWSLQDNSA [RPN4] | 3.07 ± 0.068
EDVLSSFYRVEKIKKIN [SSN2] | 1.16 ± 0.089
EDYELSPQAVSSFVRQE [PRE1] | 2.53 ± 0.083
EEAKSVLPAATKKKSKF [ARP9] | 2.31 ± 0.036
EECGRTIHRSFTICLND [CSN12] | 2.86 ± 0.044
EEELFEVTKEEDIIANY [RRP43] | 3.43 ± 0.077
EEELWNSPSKGNSERPS [YIL149C/MLP2] | 3.27 ± 0.095
EEERRKKRESGVEEEEE [SNF2] | 3.46 ± 0.047
EEIRSQIDHFKSMLSKP [SWI3] | 2.35 ± 0.04
EEIVVVASADYESQTFS [PRP8] | 3.3 ± 0.057
EEKEKEQSKEVGDVVGG [BRN1] | 3.34 ± 0.075
EEKKKEHEEKEKERETN [RPN2] | 3.44 ± 0.24
EEKSNEVKTPKIPLFTF [SIR4] | 2.79 ± 0.047
EEKVIERAAQKLRLDQL [ISW2] | 2.68 ± 0.11

Sequence | protein stability index
EESLTVLNCLRTMYFIL [YJR042W/NUP85] | 1.57 ± 0.068
EEVEDQINPTRETNDDI [SNF2] | 1.58 ± 0.062
EEVQQAQTEIKLFNKWS [RPS5] | 3.27 ± 0.075
EEYARRLAEFKRRKLDL [SMC4] | 3.31 ± 0.08
EFEIPVSFNGFKLPKKF [BRR2] | 2.91 ± 0.094
EFETPTFLVSNDDEVSQ [RPN14] | 2.77 ± 0.13
EFFVQVLTHESLHRQQQ [DLS1] | 2.92 ± 0.13
EFKIEQNNEQNPIDPFN [YDL116W/NUP84] | 3.23 ± 0.061
EFNFTNLQAKPLVGKPK [YAR002W/NUP60] | 2.25 ± 0.042
EFNSIDRVIFRVPIRSE [PRP8] | 3.11 ± 0.046
EFQPSGNVTELYGTAIG [PRE5] | 1.57 ± 0.041
EFSEHTFVERLPNETIN [DIS3] | 3.23 ± 0.12
EGHLAEIRAKEYKTSSD [SRB2] | 3.26 ± 0.078
EGLIRLDNLTEDPNSAA [DIS3] | 3.185 ± 0.031
EGQENNYNSTSRSTEKK [SIR4] | 3.25 ± 0.11
EGYQNDINTIKLQLSFV [SRP72] | 3.07 ± 0.14
EHAKWGPAAAIEFEYDP [RPB3] | 3.09 ± 0.075
EHIKQDYVASLNELYQT [NSL1] | 2.88 ± 0.053
EHKPVSPDKIGTFTADY [SSN2] | 3.09 ± 0.048
EIEELKSSIQNLNELES [SMC3] | 2.71 ± 0.21
EIEQVCKQVHDKLTSIQ [MED7] | 2.89 ± 0.055
EIHPITFPPEVLARISP [RRP43] | 1.94 ± 0.041
EIIPLQDYYIIGANIYQ [MED6] | 3.1 ± 0.044
EIITSLSMRFQRETSGM [SRB8] | 2.47 ± 0.17
EIKKVTQIVAKFPETSY [SIN4] | 2.57 ± 0.27
EILYYQIKTLPEQYSDI [AAR2] | 2.91 ± 0.046
